According to patent US20130108641A1 (Sanofi, published 2013):

Key:
[1] = biological target: T1, human GITR-Fc fusion protein (human, UniProt Q9Y5U5 26-162); test: competition ELISA, GITRL coated, GITR 0.25 µg/mL pre-incubated with antibody
T1 construct: extracellular domain; also called hGITR-Fc; recombinant human GITR-Fc; not shown: Fc part
T1 sequence (looked up): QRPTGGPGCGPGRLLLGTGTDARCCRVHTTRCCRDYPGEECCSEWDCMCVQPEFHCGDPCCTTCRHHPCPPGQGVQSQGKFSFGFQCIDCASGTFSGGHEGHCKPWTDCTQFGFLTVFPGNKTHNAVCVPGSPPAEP
Experimental: Ninety-six well plates were coated with GITR-Ligand proteins at 0.5 μg/well at 4° C. overnight. Wells were washed with washing buffer (PBS pH 7.4+0.05 Tween 20) and blocked with 200 μL of blocking buffer (PBS pH 7.4+0.05% Tween 20+1% BSA) for 1 hour at room temperature. […] Plates were washed four times with washing buffer and GITR-Ligand-bound recombinant human GITR-Fc was detected with the use of peroxidase-conjugated goat, anti-human IgG-Fc (Sigma), followed by incubation with the TMB substrate (Interchim ref UP664780).

[2] = biological target: T2, human GITR protein (form not stated) (human, UniProt Q9Y5U5 26-161, limits assumed); test: ELISA, GITR protein coated
T2 construct: also called hGITR
T2 sequence (looked up): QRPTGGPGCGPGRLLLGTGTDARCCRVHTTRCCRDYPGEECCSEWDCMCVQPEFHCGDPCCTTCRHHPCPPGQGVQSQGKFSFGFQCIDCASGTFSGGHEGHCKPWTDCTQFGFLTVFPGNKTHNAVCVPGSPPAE
Experimental: Ninety-six well plates were coated with GITR protein at 0.25 μg/well at 4° C., overnight. Wells were washed with washing buffer (PBS pH 7.4+0.05 Tween 20) and blocked with 200 μL of blocking buffer (PBS pH 7.4+0.05% Tween 20+1% BSA) for 1 hour at room temperature. […] The plate was incubated at room temperature for 1 h and washed five times with PBS-T. Then, 100 μL of a 1:50 000 dilution of peroxidase-conjugated goat anti-human IgG-Fc (Sigma)) was added to each well. Following incubation at room temperature for 1 h in the dark, the plate was washed with PBS-T, five times. Antibody binding was visualized by adding 100 μL/well of TMB-H₂O₂ substrate buffer (Interchim) The reaction proceeded at room temperature for 10 min and was read using an ELISA plate reader at a wavelength of 450 nm.

[3] = biological target: T3, human GITR expressed on cells (human, UniProt Q9Y5U5 26-241); test: FACS on HEK293-Trex-hGITR cells, Michaelis binding plot
T3 construct: whole, on cells; Used for HEK293 transfectants and for PHA-stimulated human PBMCs; also called hGITR; cell surface hGITR
T3 sequence (looked up): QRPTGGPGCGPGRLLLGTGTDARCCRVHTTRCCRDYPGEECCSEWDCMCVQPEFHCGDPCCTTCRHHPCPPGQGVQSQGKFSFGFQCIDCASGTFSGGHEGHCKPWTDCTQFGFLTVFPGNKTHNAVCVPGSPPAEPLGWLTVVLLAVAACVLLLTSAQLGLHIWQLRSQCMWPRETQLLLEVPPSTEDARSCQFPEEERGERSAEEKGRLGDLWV
Experimental: (§1) Wells were washed 3 times with 200 μl/well of PBS+1% BSA by centrifugation at 350 g for 5 minutes. Then, 100 μL of a 1:400 dilution of Alexa 647-conjugated, anti-human IgG-Fc (Invitrogen) was added to each well. Following incubation at 4° C. for 45 minutes in the dark, the plate was washed with PBS-1% BSA three times. Cells were resuspended in 150 μL of PBS-1% BSA and analyzed using GUAVA instrument.

[4] = biological target: T3, human GITR expressed on cells; test: FACS (Guava) on HEK293-Trex-hGITR cells, Alexa 647 anti-human IgG-Fc detection; fitted half-maximal concentration in the legend box, unit from the x axis 'mAb concentrations (µg/mL)'
Experimental: as §1

[5] = biological target: T4, cynomolgus monkey GITR-Fc (cynomolgus monkey); test: SPR; KD on cGITR-Fc over KD on hGITR-Fc
T4 construct: extracellular domain; also called cGITR-FC; cGITR
Experimental: (§2) The binding kinetics of several anti-GITR antibodies to recombinant human GITR (hGITR) and cynomolgus monkey GITR (cGITR) were determined by surface plasmon resonance assay using a BIAcore 2000 (BIAcore Inc., […].). Briefly, a CM5 BIAcore biosensor chip was docked into the instrument and activated with 250 μL of 1:1 NHS/EDC at room temperature. A rabbit anti-mouse Fc IgG1 mAb (BIAcore #BR-1005-14) (13.5 μg/mL in 0.05M acetate buffer, pH 5) was immobilized on the activated chips in Flow cell 1. The immobilization was carried out at a flow rate of 5 μL/min. The chip was then blocked by injection of 55 μL of ethanolamine-HCl, pH 8.5, followed by five washes with 50 mM NaOH, 1M NaCl. To measure the binding of anti-GITR mabs to the human GITR protein or cyno GITR protein, antibodies were used at 2 μg/mL in BIAcore running buffer (HBS-EP). Antigens (human GITR or cyno GITR) were injected from 3 to 1000 nM. Following completion of the injection phase, dissociation was monitored in a BIAcore running buffer at the same flow rate for 360 sec. The surface was regenerated between injections using 30 μL of 50 mM NaOH-1 M NaCl. Individual sensorgrams were analyzed using […].

[6] = biological target: T4, cynomolgus monkey GITR-Fc; test: SPR (BIAcore 2000), mAb captured on anti-mouse Fc, antigen injected
Experimental: as §2

[7] = biological target: T1, human GITR-Fc fusion protein; test: as above
Experimental: as §2

[8] = biological target: T1, human GITR-Fc fusion protein; test: competition ELISA, GITRL coated, GITR-Fc 0.25 µg/mL pre-incubated with antibody
Experimental: The ability of anti-GITR antibodies to inhibit the binding of human GITRL to hGITR was assessed using a competition ELISA. Ninety-six well plates were coated with GITR-Ligand protein at 0.5 μg/well at 4° C., overnight. Wells were washed with washing buffer (PBS pH 7.4+0.05 Tween 20) and blocked with 200 μL of blocking buffer (PBS pH 7.4+0.05% Tween 20+1% BSA) for 1 hour at room temperature. Wells were then washed two times with washing buffer and exposed to 100 μL of pre-incubated mixtures of GITR-Fc at 0.25 μg/mL plus anti-GITR antibody in 2-fold serial dilutions starting at 10 μg/ml up to 12 dilutions for 1 hour at room temperature with agitation. Plates were washed four times with washing buffer and GITR-Ligand-bound recombinant human GITR-Fc was detected with the use of peroxidase-conjugated goat anti-human IgG-Fc (Sigma), followed by incubation with the TMB substrate (Interchim)
All antibodies generated using the methods disclosed herein were able to antagonize the binding of GITRL to GITR more potently than the prior art MAB689 antibody.

[9] = biological target: T3, human GITR expressed on cells; test: Meso Scale assay, Sulfo-conjugated antibody on coated HEK293-Trex-hGITR cells
Experimental: The binding kinetics of anti-GITR antibodies to hGITR expressed on the surface of HEK293 cells were determined by Meso Scale assay. HEK293-Trex-hGITR cells (#2404) were coated at 25000 cells/well on a 96-well High Bind plate (MSD L15XB-3) for 2 hours at room temperature. Wells were washed 2 times with 150 μl/well of PBS and blocked with 150 μl/well of blocking solution for 30 min at room temperature. Following two washes with 150 μl/well of PBS, 25 μL/well of Sulfo-conjugated antibodies were added in 2-fold serial dilutions starting at 100 μg/ml up to 12 dilutions in assay diluent and incubated for 45 min at room temperature followed by two washes with PBS. The antibody binding was evaluated by adding 150 μl/well 1× Read buffer T without surfactant and read using the Mesoscale instrument.

B1: humanized anti-GITR antibody 2155 variant HC2-LC1 (antibody, V domains shown)
VH: QVTLVESGGGLVKPGGSLTLSCGASGFTISSYAMSWVRQSPGKALEWVAIISTGGSTYYPDSVRGRFTISRDNAKNSLYLTMSSLDSVDTATYYCARVGGYYDSMDHWGQGTSVT
VL: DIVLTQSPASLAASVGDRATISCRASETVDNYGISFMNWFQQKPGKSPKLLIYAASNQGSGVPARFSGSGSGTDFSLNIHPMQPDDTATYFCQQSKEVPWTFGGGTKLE
notes: also called LC1 and HC2
IC50 [1]: 0.93 nM
EC50 [2]: 1.34 nM
Kd [3]: 4.68 nM
EC50 [4]: 0.278 µg/mL

B2: humanized anti-GITR antibody 2155 variant HC1-LC1 (antibody, V domains shown)
VH: QVTLVESGGGLVKPGGSLTLSCGASGFTISSYAMSWVRQSPGKALEWVAIISTGGSTYYPDSVRGRFTISRDNAKNSLYLTMSSLDSVDTAMYYCARVGGYYDSMDHWGQGTSVT
VL: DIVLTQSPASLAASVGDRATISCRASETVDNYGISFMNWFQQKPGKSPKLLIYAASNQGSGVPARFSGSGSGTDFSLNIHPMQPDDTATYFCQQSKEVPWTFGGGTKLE
notes: also called LC1 and HC1
IC50 [1]: 1.08 nM
EC50 [2]: 0.91 nM
Kd [3]: 4.03 nM
EC50 [4]: 0.206 µg/mL

B3: humanized anti-GITR antibody 2155 variant HC3a-LC2a (antibody, V domains shown)
VH: QVTLVESGGGLVKPGGSLTLSCGASGFTISSYAMSWVRQSPGKALEWVAIISTGGSTYYPDKFRGRFTISRDNAKNSLYLTMSSLRSEDTATYYCARVGGYYDSMDHWGQGTSVT
VL: DIVLTQSPASLSASVGDRATISCRASETVDNYGISFMNWFQQKPGQSPKLLIYAASNQGSGVPARFSGSGSGTDFSLTISPMQPDDTATYYCQQSKEVPWTFGGGTKLE
notes: also called LC2a and HC3a
IC50 [1]: 1.26 nM
EC50 [2]: 2.17 nM
Kd [3]: 5.51 nM
EC50 [4]: 0.333 µg/mL

B4: humanized anti-GITR antibody 2155 variant HC3b-LC2a (antibody, V domains shown)
VH: QVTLKESGGGLVKPGGSLTLSCGASGFTISSYAMSWVRQSPGKALEWVAIISTGGSTYYPDKFRGRFTISRDNAKNSLYLTMSSLRSEDTATYYCARVGGYYDSMDHWGQGTSVT
VL: DIVLTQSPASLSASVGDRATISCRASETVDNYGISFMNWFQQKPGQSPKLLIYAASNQGSGVPARFSGSGSGTDFSLTISPMQPDDTATYYCQQSKEVPWTFGGGTKLE
notes: also called LC2a and HC3b
IC50 [1]: 1.15 nM
EC50 [2]: 1.24 nM
Kd [3]: 4.96 nM
EC50 [4]: 0.238 µg/mL

B5: humanized anti-GITR antibody 2155 variant HC4-LC3 (antibody, V domains shown)
VH: EVQLVESGGGLIQPGGSLKLSCAASGFTISSYAMSWVRQAPGKGLEWVAIISTGGSTYYADSVKGRFTISRDNSKNTLYLQMNSLRAEDTAVYYCARVGGYYDSMDHWGQGTSVT
VL: DIVLTQSPASLAVSPGQRATITCRASETVDNYGISFMNWFQQKPGQPPKLLIYAASNQGSGVPARFSGSGSGTDFTLTINPVEADDTANYYCQQSKEVPWTFGQGTKVE
notes: also called LC3 and HC4
IC50 [1]: 1.21 nM
EC50 [2]: 1.08 nM
Kd [3]: 4.52 nM
EC50 [4]: 0.259 µg/mL

B6: chimeric 2155 antibody (antibody, V domains shown)
VH: EVKLVESGGGLVKPGGSLKLSCGASGFTISSYAMSWVRQSPEKRLEWVAIISTGGSTYYPDSVRGRFTISRDNARNSLYLQMSSLRSEDTAMYYCARVGGYYDSMDHWGQGTSVTVSS
VL: not shown
IC50 [1]: 1.13 nM
EC50 [2]: 0.97 nM
Kd [3]: 5.55 nM
EC50 [4]: 0.337 µg/mL

B7: anti-GITR antibody clone 706 (antibody, V domains shown)
VH: EVQLQQSGTVLARPGASVKMSCEASGYSFTTYWMHWIKQRPGQGLEWIGAIYPGNSDTGYNQKFKGKAKLTAVTSASTAYMELSSLTNEDSAVYYCTRTSTYPHFDYWGQGTTLTVSS
VL: DILLTQSPAILSVSPGERVSFSCRASQSIGTSIHWYQQRTNGSPRLLIKYASESISGIPSRFSGSGSGTDFTLNINSVESEDIADYYCQQTNNWPLTFGAGTKLELK
notes: Murine hybridoma antibody; also called 706-GITR2; 706 GITR-2
Ratio cKD/hKD [5]: 5.3
Kd [6]: 31.8 nM
koff [6]: 0.000662 s⁻¹
Kd [7]: 5.95 nM
koff [7]: 0.000221 s⁻¹
IC50 [8]: 2.82 nM
Kd [9]: 7.24 nM

B8: anti-GITR antibody clone 698 (antibody, V domains shown)
VH: EVQLQQSGTVLARPGASVKMSCEASGYSFTTYWMHWIKQRPGQGLEWIGAIYPGNSDTGYNQKFKGKAKLTAVTSATTAYMELSSLTDEDSAVYYCTRTSTYPHFDYWGQGTTLTVSS
VL: DILLTQSPAILSVSPGERVSFSCRASQSIGTSIHWYQQRTNGSPRLLIKYASESISGIPSRFSGSGSGTDFTLNINSVESEDIADYYCQQSNNWPLTFGAGTKLELK
notes: Murine hybridoma antibody; also called 698-GITR2; 698 GITR-2
Ratio cKD/hKD [5]: 5.5
Kd [6]: 36.8 nM
koff [6]: 0.000707 s⁻¹
Kd [7]: 6.67 nM
koff [7]: 0.000224 s⁻¹
IC50 [8]: 1.9 nM
Kd [9]: 6.8 nM

B9: anti-GITR antibody clone 827 (antibody, V domains shown)
VH: EVQLQQSGTVLARPGASVKMSCETSGYSFTTYWIHWIKQRPGQGLEWIATIYPGNSDAGYNQKFRGKAKLTAVTSASTAYMELSSLTNEDSAVYYCTRSSTYPHFDYWGQGTTLTVSS
VL: DILLTQSPAILSVSPGERVSFSCRASQSIGTSIHWYQQRTNDSPRLLIKYASESISGIPSRFSGSGSGTDFTLNINSVESEDIADYYCQQTNNWPLTFGAGTKLELK
notes: Murine hybridoma antibody; also called 827-GITR2; 827 GITR-2
Ratio cKD/hKD [5]: 4.7
Kd [6]: 20.9 nM
koff [6]: 0.000473 s⁻¹
Kd [7]: 4.43 nM
koff [7]: 0.000177 s⁻¹
IC50 [8]: 2.5 nM
Kd [9]: 4.44 nM
